In publication PMC5028891 (Scientific Reports, 2016):

B1: unnamed (parent)
chain 1: MASMGLQVMGIALAVLGWLAVMLCCALPMWRVTAFIGSNIVTSQTIWEGLWMNCVVQSTGQMQCKVYDSLLALPQDLQAARALVIISIIVAALGVLLSVVGGKCTNCLEDESAKAKTMIVAGVVFLLAGLMVIVPVSWTAHNIIQDFYNPLVASGQKREMGASLYVGWAASGLLLLGGGLLCCNCPPRTDKPYSAKYSAARSAAASNYV
chain 2: RCVLTVPSTDIEKEILDLAAATERLNLTDALNSNPAGNLYDWRSSNSYPWTQKLNLHLTITATGQKYRILASKIVDFNIYSNNFNNLVKLEQSLGDGVKDHYVDISLDAGQYVLVMKANSSYSGNYPYSILFQKF

Variants of: B1
Experiment: pull-down
Conditions: with partner chain of the complex shown; n = 4; parent: 1; read off a plot

Variant | ratio to parent
chain 1 I40A | 1.1
chain 1 I40D | 0.21
